Experimental data taken from the supplement of paper PMC7877785.
± gives the uncertainty stated by the source.

Assay: self-splicing fitness, log relative to wild type (ln ratio); higher = more splicing; Tetrahymena group I intron in knt gene, E. coli kanamycin selection, DiMSum; sequences stand for … in CUCUCU…GGAGGGAAAAGUUAUCAGGCAUGCACCUGGUAGCUAGUCUUUAAACCAAUAGAUUGCAUCGGUUUAAAAGGCAAGACCGUCAAAUUGCGGGAAAGGGGUCAACAGCCGUUCAGUACCAAGUCUCAGGGGAAACUUUGAGAUGGCCUUGCAAAGGGUAUGGUAAUAAGCUGACGGACAUGGUCCUAACCACGCAGCCAAGUCCUAAGUCAACAGAUCUUCUGUUGAUAUGGAUGCAGUUCACAGACUAAAUGUCGGUCGGGGAAGAUGUAUUCUUCUCAUAAGAUAUAGUCGGACCUCUCCUUAAUGGGAGCUAGCGGAUGAAGUGAUGCAACACUGGAGCCGCUGGGAACUAAUUUGUAUGCGAAAGUAUAUUGAUUAGUUUUGGAGUACUCGUGGUCG
Procedure, shortened: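 Six replicate transformations of E. coli BL21(DE3) with a pET-22b(+) library were grown overnight at 37°C or 30°C. The library randomised all eight P1ex-region intron nucleotides, the intron lying in the knt kanamycin-resistance gene, and plates were LB agar with or without 25 μg/mL kanamycin plus 100 μg/mL carbenicillin, 50 μM IPTG and 0.2% rhamnose. Pooled colonies were amplicon-sequenced on an Illumina HiSeq 2500, and fitness is the DiMSum error-weighted combination of wild-type-normalised replicate fold changes, kanamycin versus none.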

| Sequence | self-splicing fitness (ln) (30 °C) | self-splicing fitness (ln) (37 °C) |
| --- | --- | --- |
| CUAAAGCAAUAUUACGGUGA | -4.11 ± 0.2 | -1.6 ± 0.14 |
| UUUUAGCAAUAUUACGUACA | -2.16 ± 0.15 | -0.143 ± 0.2 |
| AUACAGCAAUAUUACGACAA | -1.19 ± 0.093 | -0.929 ± 0.12 |
| CCGCAGCAAUAUUACGGCGC |  | -0.961 ± 0.22 |
| ACGCAGCAAUAUUACGCAUC | -2.1 ± 0.11 | -1.47 ± 0.16 |
| CCCGAGCAAUAUUACGGUUU | -3.14 ± 0.11 | -1.96 ± 0.12 |
| AGAAAGCAAUAUUACGUUCC | -2.59 ± 0.43 | -1.23 ± 0.39 |
| AGUGAGCAAUAUUACGAACC | -0.739 ± 0.16 | -0.869 ± 0.24 |
| CGGAAGCAAUAUUACGUGUG | -1.38 ± 0.051 | -0.291 ± 0.067 |
| GAUAAGCAAUAUUACGCCGU | -0.976 ± 0.15 | -0.545 ± 0.17 |
| CUGGAGCAAUAUUACGGCGG | -0.649 ± 0.16 | -1.44 ± 0.26 |
| UGUGAGCAAUAUUACGUACC | -1.1 ± 0.23 | -0.269 ± 0.28 |
| CCUGAGCAAUAUUACGUCAU | -3.5 ± 0.15 | -2.68 ± 0.18 |
| CGGAAGCAAUAUUACGACGA | -1.75 ± 0.21 | -0.502 ± 0.15 |
| AGAUAGCAAUAUUACGUGUC | -3.36 ± 0.28 | -3.11 ± 0.27 |
| GCGUAGCAAUAUUACGCUCA |  | -0.161 ± 0.23 |
| GGAAAGCAAUAUUACGGAAG | -4.32 ± 0.22 | -1.93 ± 0.15 |
| UAAAAGCAAUAUUACGUCUG | -0.0205 ± 0.058 | 0.201 ± 0.075 |
| UAGUAGCAAUAUUACGCCCG | -0.0603 ± 0.35 | 0.255 ± 0.44 |

| Sequence | self-splicing fitness (ln) (30 °C) | self-splicing fitness (ln) (37 °C) |
| --- | --- | --- |
| AGUGAGCAAUAUUACGGUGU | -4.01 ± 0.29 | -3.73 ± 0.34 |
| CCAGAGCAAUAUUACGAUGG | -4.18 ± 0.34 | -2.04 ± 0.27 |
| GACAAGCAAUAUUACGAGCG | -1 ± 0.074 | -0.88 ± 0.088 |
| ACGUAGCAAUAUUACGCUCC | -2.71 ± 0.36 | -0.259 ± 0.22 |
| CCAUAGCAAUAUUACGAUUG | -1.17 ± 0.07 | -0.642 ± 0.083 |
| CUCAAGCAAUAUUACGUUCA | -2.07 ± 0.15 | -1.46 ± 0.14 |
| UUUCAGCAAUAUUACGACGA | -0.00347 ± 0.1 | 0.236 ± 0.12 |
| CUUUAGCAAUAUUACGACCG | -0.732 ± 0.27 | 0.518 ± 0.26 |
| GAUAAGCAAUAUUACGAGAG | -2.84 ± 0.26 | -3.04 ± 0.4 |
| UACAAGCAAUAUUACGCGUC | -2.06 ± 0.1 | -1.23 ± 0.14 |
| ACUGAGCAAUAUUACGCAGA | -2.38 ± 0.14 | -1.25 ± 0.1 |
| GUUCAGCAAUAUUACGGCCA | -0.626 ± 0.12 | -0.426 ± 0.15 |
| AUACAGCAAUAUUACGUGCU | -3.03 ± 0.15 | -1.18 ± 0.12 |
| CUGUAGCAAUAUUACGGGAA | -1.49 ± 0.29 | -2.12 ± 0.35 |
| CCAAAGCAAUAUUACGGCGA | -3.26 ± 0.21 | -3.01 ± 0.19 |
| UAUGAGCAAUAUUACGAGCG | -1.32 ± 0.12 | -1.26 ± 0.16 |
| GGUGAGCAAUAUUACGGAGU | -3.25 ± 0.26 | -1.9 ± 0.19 |
| AACUAGCAAUAUUACGGUUA | -0.722 ± 0.084 | -0.482 ± 0.083 |
| AAAUAGCAAUAUUACGAUAG | -3.17 ± 0.27 | -2.49 ± 0.23 |
